Results reported in the supplement of paper PMC7877785.
± gives the uncertainty stated by the source.

Assay: self-splicing fitness, log relative to wild type (ln ratio); higher = more splicing; Tetrahymena group I intron in knt gene, E. coli kanamycin selection, DiMSum; sequences stand for … in CUCUCU…GGAGGGAAAAGUUAUCAGGCAUGCACCUGGUAGCUAGUCUUUAAACCAAUAGAUUGCAUCGGUUUAAAAGGCAAGACCGUCAAAUUGCGGGAAAGGGGUCAACAGCCGUUCAGUACCAAGUCUCAGGGGAAACUUUGAGAUGGCCUUGCAAAGGGUAUGGUAAUAAGCUGACGGACAUGGUCCUAACCACGCAGCCAAGUCCUAAGUCAACAGAUCUUCUGUUGAUAUGGAUGCAGUUCACAGACUAAAUGUCGGUCGGGGAAGAUGUAUUCUUCUCAUAAGAUAUAGUCGGACCUCUCCUUAAUGGGAGCUAGCGGAUGAAGUGAUGCAACACUGGAGCCGCUGGGAACUAAUUUGUAUGCGAAAGUAUAUUGAUUAGUUUUGGAGUACUCGUGGUCG
In short: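 Six replicate transformations of E. coli BL21(DE3) with a pET-22b(+) library were grown overnight at 37°C or 30°C. The library randomised all eight P1ex-region intron nucleotides, the intron lying in the knt kanamycin-resistance gene, and plates were LB agar with or without 25 μg/mL kanamycin plus 100 μg/mL carbenicillin, 50 μM IPTG and 0.2% rhamnose. Pooled colonies were amplicon-sequenced on an Illumina HiSeq 2500, and fitness is the DiMSum error-weighted combination of wild-type-normalised replicate fold changes, kanamycin versus none.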

Row | Sequence | self-splicing fitness (ln) (30 °C) | self-splicing fitness (ln) (37 °C)
1 | GUAAAGCAAUAUUACGCAUA | -1.1 ± 0.098 | -0.728 ± 0.11
2 | GUAAAGCAAUAUUACGCCCU | 0.35 ± 0.081 | 0.185 ± 0.081
3 | GUAAAGCAAUAUUACGCUAC | -4.2 ± 0.32 | -1.87 ± 0.37
4 | GUAAAGCAAUAUUACGCUUG | -2.17 ± 0.15 | -1.12 ± 0.17
5 | GUAAAGCAAUAUUACGGACC | -1.15 ± 0.13 | -0.652 ± 0.24
6 | GUAAAGCAAUAUUACGGAGC | -2.47 ± 0.2 | -1.71 ± 0.21
7 | GUAAAGCAAUAUUACGGAUA | -2.72 ± 0.16 | -0.67 ± 0.12
8 | GUAAAGCAAUAUUACGGCGA | -0.00421 ± 0.11 | -0.231 ± 0.17
9 | GUAAAGCAAUAUUACGGGGU | -3.02 ± 0.19 | -2.25 ± 0.21
10 | GUAAAGCAAUAUUACGGUAC | -1.61 ± 0.12 | -1.26 ± 0.18
11 | GUAAAGCAAUAUUACGGUAG | -0.977 ± 0.054 | -1.37 ± 0.099
12 | GUAAAGCAAUAUUACGUCAC | -2.16 ± 0.096 | -1.56 ± 0.12
13 | GUAAAGCAAUAUUACGUCCA | -0.574 ± 0.088 | 0.0855 ± 0.12
14 | GUAAAGCAAUAUUACGUGGG | -3.28 ± 0.18 | -2.91 ± 0.14
15 | GUAAAGCAAUAUUACGUGUG | -1.34 ± 0.063 | -1 ± 0.088
16 | GUACAGCAAUAUUACGAAGA | -2.52 ± 0.32 | -1.83 ± 0.28
17 | GUACAGCAAUAUUACGAAUG | -3.54 ± 0.25 | -0.988 ± 0.18
18 | GUACAGCAAUAUUACGACGC | -0.428 ± 0.092 | -0.206 ± 0.1
19 | GUACAGCAAUAUUACGAGAC | -2.09 ± 0.24 | -2.5 ± 0.28
20 | GUACAGCAAUAUUACGAGGG | -3.21 ± 0.17 | -2.42 ± 0.2
21 | GUACAGCAAUAUUACGAUCG | -1.67 ± 0.12 | -0.932 ± 0.16
22 | GUACAGCAAUAUUACGCACU | -0.597 ± 0.13 | -1.16 ± 0.24
23 | GUACAGCAAUAUUACGCAGG | -3.44 ± 0.23 | -1.93 ± 0.19
24 | GUACAGCAAUAUUACGCAUA | -2.65 ± 0.15 | -1.56 ± 0.11

Row | Sequence | self-splicing fitness (ln) (30 °C) | self-splicing fitness (ln) (37 °C)
25 | GUACAGCAAUAUUACGCCCU | -1.64 ± 0.34 | -0.525 ± 0.32
26 | GUACAGCAAUAUUACGCUCA | -1.07 ± 0.091 | -0.188 ± 0.11
27 | GUACAGCAAUAUUACGGCUA | 0.707 ± 0.15 | 0.282 ± 0.12
28 | GUACAGCAAUAUUACGGGGA | -3.21 ± 0.25 | -2.33 ± 0.19
29 | GUACAGCAAUAUUACGGGUA | -2.08 ± 0.13 | -1.93 ± 0.15
30 | GUACAGCAAUAUUACGGUGA | -1.75 ± 0.14 | -0.943 ± 0.12
31 | GUACAGCAAUAUUACGGUGG | -2.22 ± 0.1 | -1.63 ± 0.11
32 | GUACAGCAAUAUUACGUACG | -4.18 ± 0.31 | -2.2 ± 0.19
33 | GUACAGCAAUAUUACGUAUG | -2.52 ± 0.086 | -1.45 ± 0.091
34 | GUACAGCAAUAUUACGUGAC | -2.8 ± 0.18 | -0.577 ± 0.16
35 | GUACAGCAAUAUUACGUGAU | -2.88 ± 0.07 | -0.556 ± 0.07
36 | GUACAGCAAUAUUACGUUAA | -2.28 ± 0.12 | -1.98 ± 0.15
37 | GUACAGCAAUAUUACGUUGU | -3.27 ± 0.15 | -1.99 ± 0.15
38 | GUAGAGCAAUAUUACGACCC | 0.536 ± 0.15 | 0.745 ± 0.18
39 | GUAGAGCAAUAUUACGAGAC | -3.02 ± 0.42 | 
40 | GUAGAGCAAUAUUACGAGAU | -4.13 ± 0.23 | -0.661 ± 0.16
41 | GUAGAGCAAUAUUACGAUCA | -1.28 ± 0.23 | -0.907 ± 0.24
42 | GUAGAGCAAUAUUACGAUUC | -0.192 ± 0.1 | 0.716 ± 0.14
43 | GUAGAGCAAUAUUACGAUUG | -2.82 ± 0.16 | -2.4 ± 0.2
44 | GUAGAGCAAUAUUACGCCUA | -1.39 ± 0.26 | -1.18 ± 0.24
45 | GUAGAGCAAUAUUACGCUGA | -2.33 ± 0.11 | -1.15 ± 0.14
46 | GUAGAGCAAUAUUACGGAAU | -2.36 ± 0.084 | -1.18 ± 0.096
47 | GUAGAGCAAUAUUACGGCCA | -0.643 ± 0.098 | -0.417 ± 0.17
48 | GUAGAGCAAUAUUACGGCUU | -0.97 ± 0.075 | -0.03 ± 0.12

Row | Sequence | self-splicing fitness (ln) (30 °C) | self-splicing fitness (ln) (37 °C)
49 | GUAGAGCAAUAUUACGGGAG | -3.15 ± 0.47 | -1.85 ± 0.38
50 | GUAGAGCAAUAUUACGGGGA | -3.54 ± 0.25 | -1.16 ± 0.29
51 | GUAGAGCAAUAUUACGGGUC | -2.19 ± 0.12 | -1.37 ± 0.12
52 | GUAGAGCAAUAUUACGUAUC | -2.44 ± 0.12 | -1.58 ± 0.13
53 | GUAGAGCAAUAUUACGUCGA | -3.08 ± 0.17 | -0.919 ± 0.2
54 | GUAGAGCAAUAUUACGUGGU | -3.09 ± 0.28 | -3.52 ± 0.3
55 | GUAGAGCAAUAUUACGUGUA | -2.77 ± 0.2 | -2.53 ± 0.28
56 | GUAGAGCAAUAUUACGUUAC | -2.63 ± 0.18 | -0.785 ± 0.14
57 | GUAGAGCAAUAUUACGUUCC | -1.77 ± 0.14 | -0.881 ± 0.18
58 | GUAGAGCAAUAUUACGUUUU | -2.47 ± 0.16 | -1.36 ± 0.18
59 | GUAUAGCAAUAUUACGACCG | -2.97 ± 0.35 | -0.999 ± 0.26
60 | GUAUAGCAAUAUUACGACGG | -4.18 ± 0.37 | -2.33 ± 0.35
61 | GUAUAGCAAUAUUACGAGCU | -2.42 ± 0.27 | -1.61 ± 0.3
62 | GUAUAGCAAUAUUACGAUAU | -2.87 ± 0.32 | -0.832 ± 0.36
63 | GUAUAGCAAUAUUACGAUCC | -0.716 ± 0.18 | 1.03 ± 0.22
64 | GUAUAGCAAUAUUACGAUUA | -1.14 ± 0.16 | -1.4 ± 0.15
65 | GUAUAGCAAUAUUACGCAAG | -3.76 ± 0.4 | -1.64 ± 0.25
66 | GUAUAGCAAUAUUACGCAUA | -2.3 ± 0.28 | -0.525 ± 0.27
67 | GUAUAGCAAUAUUACGCCUC | -1.32 ± 0.21 | -0.746 ± 0.27
68 | GUAUAGCAAUAUUACGCGUA | -2.69 ± 0.29 | -1.41 ± 0.22
69 | GUAUAGCAAUAUUACGCUAG | -2.46 ± 0.43 | -0.609 ± 0.3
70 | GUAUAGCAAUAUUACGCUUG | -1.72 ± 0.16 | -1.41 ± 0.26
71 | GUAUAGCAAUAUUACGCUUU | -3.51 ± 0.24 | -2.28 ± 0.17
72 | GUAUAGCAAUAUUACGGAAU | -2.27 ± 0.23 | -2.39 ± 0.21

Row | Sequence | self-splicing fitness (ln) (30 °C) | self-splicing fitness (ln) (37 °C)
73 | GUAUAGCAAUAUUACGGAUC | -0.654 ± 0.14 | -0.016 ± 0.17
74 | GUAUAGCAAUAUUACGGCUA | -0.758 ± 0.13 | -0.383 ± 0.11
75 | GUAUAGCAAUAUUACGGGAC | -2.88 ± 0.34 | -1.07 ± 0.2
76 | GUAUAGCAAUAUUACGGGUC | -1.89 ± 0.2 | -1.62 ± 0.39
77 | GUAUAGCAAUAUUACGGUGG | -2.54 ± 0.1 | -2.63 ± 0.17
78 | GUAUAGCAAUAUUACGUAAA | -2.75 ± 0.31 | -1.66 ± 0.31
79 | GUAUAGCAAUAUUACGUAUU | -4.14 ± 0.37 | -1.44 ± 0.2
80 | GUAUAGCAAUAUUACGUCUU | -1.64 ± 0.14 | 0.0317 ± 0.13
81 | GUAUAGCAAUAUUACGUGCA | -0.903 ± 0.19 | -0.516 ± 0.18
82 | GUAUAGCAAUAUUACGUGGG | -3.28 ± 0.16 | -1.88 ± 0.14
83 | GUCAAGCAAUAUUACGAAAC | -1.37 ± 0.27 | 0.108 ± 0.3
84 | GUCAAGCAAUAUUACGAAGA | -3.88 ± 0.28 | 
85 | GUCAAGCAAUAUUACGACUG | -4.59 ± 0.27 | -4.75 ± 0.45
86 | GUCAAGCAAUAUUACGAGAU | -5.3 ± 0.38 | -3.28 ± 0.2
87 | GUCAAGCAAUAUUACGAGCC | -4.32 ± 0.25 | -2.26 ± 0.26
88 | GUCAAGCAAUAUUACGAUCU | -2.31 ± 0.067 | -1.04 ± 0.068
89 | GUCAAGCAAUAUUACGAUUG |  | -3.59 ± 0.34
90 | GUCAAGCAAUAUUACGCAAU | -2 ± 0.061 | -1.32 ± 0.076
91 | GUCAAGCAAUAUUACGCACA | -1.21 ± 0.12 | -0.776 ± 0.13
92 | GUCAAGCAAUAUUACGCCGA | -3.33 ± 0.45 | -1.08 ± 0.18
93 | GUCAAGCAAUAUUACGCGGU | -3.16 ± 0.39 | -1.82 ± 0.31
94 | GUCAAGCAAUAUUACGGAUG | -2.64 ± 0.12 | -0.795 ± 0.11
95 | GUCAAGCAAUAUUACGGGGC | -5.02 ± 0.45 | -3.14 ± 0.27
96 | GUCAAGCAAUAUUACGGUAA | -1.28 ± 0.18 | -0.000783 ± 0.17
